In US20250361274A1, “PEPTIDE AND PEPTIDE-CONTAINING AGENT” (PEPTIDREAM INC., priority 2022, published 2025):
Square brackets hold non-standard residues; d marks the D form. Ends that are not written are not given here. Ala(2-NH2-4-pyridyl) = Nc1cc(C[C@H](N)C(=O)O)ccn1; 3Pal(6-Ph) = N[C@@H](Cc1ccc(-c2ccccc2)nc1)C(=O)O; Phe(4-COOH) = N[C@@H](Cc1ccc(C(=O)O)cc1)C(=O)O; Bip = N[C@@H](Cc1ccc(-c2ccccc2)cc1)C(=O)O; cisHyp = O=C(O)[C@@H]1C[C@H](O)CN1; Hyp = O=C(O)[C@@H]1C[C@@H](O)CN1; NMeF = CN[C@@H](Cc1ccccc1)C(=O)O; Cha = N[C@@H](CC1CCCCC1)C(=O)O; Ahp(2) = CCCCC[C@H](N)C(=O)O; Chg = N[C@H](C(=O)O)C1CCCCC1; Abu = CC[C@H](N)C(=O)O

Assays:
[1] = biological target: T1, BMP7 (Homo sapiens, UniProt P18075); assay: BMP7 signal transduction inhibitory activity: SMAD1 phosphorylation by BMP7 stimulus, A549 cells; type: cell-based; conditions: SMAD1 phosphorylation, BMP7 10 nM; peptide conc. in assay 1, 10, 100 nM
T1 sequence (P18075 293-431): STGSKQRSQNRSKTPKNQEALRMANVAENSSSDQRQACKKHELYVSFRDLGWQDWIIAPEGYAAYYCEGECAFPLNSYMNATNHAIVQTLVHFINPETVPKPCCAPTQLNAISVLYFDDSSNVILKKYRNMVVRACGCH
Procedure, shortened: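 A549 cells were stimulated with 10 nM BMP7, and peptide inhibition of signalling was measured as SMAD1 phosphorylation. Peptides were tested at three concentrations, in sets ranging from 1–100 nM to 100–1,000 nM, or as eight-point 1/3 dilution series starting at 100 nM or 1,000 nM.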

[2] = biological target: T2, BMP4 (Homo sapiens, UniProt P12644); assay: BMP4 signal transduction inhibitory activity: SMAD1 phosphorylation by BMP4 stimulus, AlphaLISA SureFire, A549 cells; type: cell-based; conditions: SMAD1 phosphorylation, BMP4 0.2 nM; peptide conc. in assay 0.2, 2, 20 nM
T2 sequence (P12644 293-408): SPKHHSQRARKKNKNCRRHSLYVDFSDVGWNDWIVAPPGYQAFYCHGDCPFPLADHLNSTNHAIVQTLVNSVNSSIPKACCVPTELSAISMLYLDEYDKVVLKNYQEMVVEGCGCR

Substance | aLISA BMP7 (10 nM) % inh [1] | aLISA BMP4 (0.2 nM) % inh [2]
345 (FG[NMeF]G[Bip]GDD[Cha]A[NMeF][Ahp(2)]HCG-NH2; not fully specified (N-terminus, bridges)) [compound 345] | D (showed less than 30% of inhibitory activity in 10 nM-addition zone and showed 30% or more of inhibitory activity in 100 nM-addition zone) | A (showed less than 30% of inhibitory activity in 2 nM-peptide-addition zone and showed 30% or more of inhibitory activity in 20 nM-addition zone)
346 (FG[NMeF]G[Bip]GDD[Cha]A[NMeF]IHCG-NH2; not fully specified (N-terminus, bridges)) [compound 346] | D (showed less than 30% of inhibitory activity in 10 nM-addition zone and showed 30% or more of inhibitory activity in 100 nM-addition zone) | ND (the inhibitory activity was less than 30% at the maximum concentration evaluated)
347 (FG[NMeF]G[Bip]GDD[Cha]A[NMeF][Chg]HCG-NH2; not fully specified (N-terminus, bridges)) [compound 347] | D (showed less than 30% of inhibitory activity in 10 nM-addition zone and showed 30% or more of inhibitory activity in 100 nM-addition zone) | ND (the inhibitory activity was less than 30% at the maximum concentration evaluated)
348 (FG[NMeF]G[Bip]GDD[Cha]A[NMeF]LACG-NH2; not fully specified (N-terminus, bridges)) [compound 348] | D (showed less than 30% of inhibitory activity in 10 nM-addition zone and showed 30% or more of inhibitory activity in 100 nM-addition zone) | A (showed less than 30% of inhibitory activity in 2 nM-peptide-addition zone and showed 30% or more of inhibitory activity in 20 nM-addition zone)
349 (FG[NMeF]G[Bip]GDD[Cha]A[NMeF]LLCG-NH2; not fully specified (N-terminus, bridges)) [compound 349] | D (showed less than 30% of inhibitory activity in 10 nM-addition zone and showed 30% or more of inhibitory activity in 100 nM-addition zone) | ND (the inhibitory activity was less than 30% at the maximum concentration evaluated)
350 (FG[NMeF]G[Bip]GDD[Cha]A[NMeF]L[Abu]CG-NH2; not fully specified (N-terminus, bridges)) [compound 350] | D (showed less than 30% of inhibitory activity in 10 nM-addition zone and showed 30% or more of inhibitory activity in 100 nM-addition zone) | ND (the inhibitory activity was less than 30% at the maximum concentration evaluated)
351 (FG[NMeF]G[Bip]GDD[Cha]A[NMeF]L[Ala(2-NH2-4-pyridyl)]CG-NH2; not fully specified (N-terminus, bridges); also: cyclic peptide, ring closure not given here) [compound 351] | D (showed less than 30% of inhibitory activity in 10 nM-addition zone and showed 30% or more of inhibitory activity in 100 nM-addition zone) | ND (the inhibitory activity was less than 30% at the maximum concentration evaluated)
352 (FG[NMeF]G[Bip]GDD[Cha]A[NMeF]LGCG-NH2; not fully specified (N-terminus, bridges); also: cyclic peptide, ring closure not given here) [compound 352] | D (showed less than 30% of inhibitory activity in 10 nM-addition zone and showed 30% or more of inhibitory activity in 100 nM-addition zone) | ND (the inhibitory activity was less than 30% at the maximum concentration evaluated)
353 (FG[NMeF]G[Bip]GDD[Cha]A[NMeF]LSCG-NH2; not fully specified (N-terminus, bridges); also: cyclic peptide, ring closure not given here) [compound 353] | D (showed less than 30% of inhibitory activity in 10 nM-addition zone and showed 30% or more of inhibitory activity in 100 nM-addition zone) | ND (the inhibitory activity was less than 30% at the maximum concentration evaluated)
354 (FG[NMeF]G[Bip]GDD[Cha]A[NMeF]LNCG-NH2; not fully specified (N-terminus, bridges)) [compound 354] | D (showed less than 30% of inhibitory activity in 10 nM-addition zone and showed 30% or more of inhibitory activity in 100 nM-addition zone) | ND (the inhibitory activity was less than 30% at the maximum concentration evaluated)
355 (FG[NMeF]G[Bip]GDD[Cha]A[NMeF]L[Hyp]CG-NH2; not fully specified (N-terminus, bridges)) [compound 355] | D (showed less than 30% of inhibitory activity in 10 nM-addition zone and showed 30% or more of inhibitory activity in 100 nM-addition zone) | A (showed less than 30% of inhibitory activity in 2 nM-peptide-addition zone and showed 30% or more of inhibitory activity in 20 nM-addition zone)
356 (FG[NMeF]G[Bip]GDD[Cha]A[NMeF]L[cisHyp]CG-NH2; not fully specified (N-terminus, bridges)) [compound 356] | C (showed less than 30% of inhibitory activity in a zone to which the peptide was added in an amount of 1 nM and showed 30% or more of inhibitory activity in 10 nM-addition zone) | A (showed less than 30% of inhibitory activity in 2 nM-peptide-addition zone and showed 30% or more of inhibitory activity in 20 nM-addition zone)
357 (FG[NMeF]G[Bip]GDD[Cha]A[NMeF]L[Phe(4-COOH)]CG-NH2; not fully specified (N-terminus, bridges)) [compound 357] | D (showed less than 30% of inhibitory activity in 10 nM-addition zone and showed 30% or more of inhibitory activity in 100 nM-addition zone) | ND (the inhibitory activity was less than 30% at the maximum concentration evaluated)
358 (FG[NMeF]G[Bip]GDE[Cha]A[NMeF]LHCG-NH2; not fully specified (N-terminus, bridges)) [compound 358] | D (showed less than 30% of inhibitory activity in 10 nM-addition zone and showed 30% or more of inhibitory activity in 100 nM-addition zone) | ND (the inhibitory activity was less than 30% at the maximum concentration evaluated)
359 (FG[NMeF]G[Bip]GDE[Cha]A[NMeF]L[Abu]CG-NH2; not fully specified (N-terminus, bridges)) [compound 359] | D (showed less than 30% of inhibitory activity in 10 nM-addition zone and showed 30% or more of inhibitory activity in 100 nM-addition zone) | ND (the inhibitory activity was less than 30% at the maximum concentration evaluated)
360 (FG[NMeF]G[Bip]GDE[Cha]A[NMeF]L[Ala(2-NH2-4-pyridyl)]CG-NH2; not fully specified (N-terminus, bridges)) [compound 360] | D (showed less than 30% of inhibitory activity in 10 nM-addition zone and showed 30% or more of inhibitory activity in 100 nM-addition zone) | ND (the inhibitory activity was less than 30% at the maximum concentration evaluated)
361 (FG[NMeF]G[Bip]GDE[Cha]A[NMeF]L[Phe(4-COOH)]CG-NH2; not fully specified (N-terminus, bridges)) [compound 361] | D (showed less than 30% of inhibitory activity in 10 nM-addition zone and showed 30% or more of inhibitory activity in 100 nM-addition zone) | ND (the inhibitory activity was less than 30% at the maximum concentration evaluated)
362 (FG[NMeF]GFGDE[Cha]A[NMeF]LHCG-NH2; not fully specified (N-terminus, bridges)) [compound 362] | D (showed less than 30% of inhibitory activity in 10 nM-addition zone and showed 30% or more of inhibitory activity in 100 nM-addition zone) | ND (the inhibitory activity was less than 30% at the maximum concentration evaluated)
363 (FG[NMeF]G[3Pal(6-Ph)]GDE[Cha]A[NMeF]LHCG-NH2; not fully specified (N-terminus, bridges)) [compound 363] | D (showed less than 30% of inhibitory activity in 10 nM-addition zone and showed 30% or more of inhibitory activity in 100 nM-addition zone) | ND (the inhibitory activity was less than 30% at the maximum concentration evaluated)
364 (FG[NMeF]G[Bip]GDE[Cha]Q[NMeF]LHCG-NH2; not fully specified (N-terminus, bridges)) [compound 364] | D (showed less than 30% of inhibitory activity in 10 nM-addition zone and showed 30% or more of inhibitory activity in 100 nM-addition zone) | ND (the inhibitory activity was less than 30% at the maximum concentration evaluated)
365 (FG[NMeF]G[Bip]GDE[Cha][Abu][NMeF]LHCG-NH2; not fully specified (N-terminus, bridges)) [compound 365] | D (showed less than 30% of inhibitory activity in 10 nM-addition zone and showed 30% or more of inhibitory activity in 100 nM-addition zone) | ND (the inhibitory activity was less than 30% at the maximum concentration evaluated)
